Assay: soluble on expression in E. coli; label from the status in PepcDB or PDB records

Sequence | soluble on expression in E. coli
MKKTKIVALSMMNSQTSGNPSRGTTKFESYTFDYWQYIDTLVYWGGSSGEGIIVTPSADVIDEAHSNGVPVLGTIFLPPKEYGGKVDWVKTMLKKDEQGQYPFASQMVKVAKTYGFEGWFINEETQGLNADDAANMKALIQQVKKEDSSLQIMWYDAMTKDGKVDWQNQLNDQNATFVQDKAADAMFLNFWWTQNNLADQKLLEKSNLYAKNHNIDPYNIYAGIDVQAKDVQTPVKWNLLEKGNQATQTSIGLYAASATYTNASNWDDFQNRESAFWVNQKADPRQVDHSVNESWTGLSKYVLEKSAISGNEFNTNFNLGNGYNYFKAGQKISEMDWNDRSLAGILPSYRWIIDNEGKNKISPSFDFANAYNGGNSLKFMAEHLDAGKSSNITLFASDLKIAMGAKFSVSMRSDQALKVSAILELANGQKVSIAGDKSLTENWSKLEHHHHHH | not soluble
MVKSMIAVISDIHSNLEALNAVLNDIKNRGIKKIFCLGDIVGYGANPNECVELIRDLNCLSVVGNHDYGVLGKESLDYFNKYGAIAILWTKKVIKNENLKFLDSLPLIIEENIKGKKVIFSHANPKHPEIWEYLFPDYVDDVFNYGDLIFVGHSHIPFVNSEEGNLLLHEGKIYLDEDKKYLINPGSVGQPRDGINKASYCIFDEKDFKIEIVRVEYDIKKAYEKIVKNRLPEWLGERLFLGR | soluble
SDPNKAEISRLEVLPQDLLGEIVAKIGAKYAEDYHNCILSCKELGASANDERVLKTLNLAPLVKKPLSCRKHLLIMKKCLANNNPDAHYIKGIIWYFNLDHCDVGLHHIGIAAN | soluble
MSLLNIKFTDNAVDYLKRREILDKILILITDDGGGKYSIQGGSCSMGAHFSIIWLDKVDPDYPVKIANEQNVKIYTSDFDKTMLGPNMVMDYNAGSLSLSSDEGLLDGSVDIGNGAALLKANKNVQMGINRQCEGHHHHHH | soluble
MGSDKIHHHHHHMNLEQILLAISNPNDNELTIAGLEAAKVNWSVFYPELERLMDQFIADDTSLTDEQEAIVFFGTLLLAELKYSPALAKCLQLFARSDTYLTPIEAIFGDALTELTATLFFNVADGSTQTLSDYIVDGHQAMYCKASAIEAVFAQYEVGVIDKTELVEHVTRWLAAFLALPSSNNSFLISVLADSCIKYQLDDFKPQFIDLCDNDLFDEDRFKQCEVKAWDKANAAKLIESGNIQTKFNVVDTLNAWIVDDSNNEVADNMSNEDSDAFESLMGEDGLLADILYDENTILENSVPVSSLPTAGRNDPCPCGSGKKYKKCCLR | not soluble
MNSITVDFLNDQVFQGPMDGTEDKKDGNPKKSTCEKHWAVIDQHNVAICVQLCSFVEGEEKKCAEYYSDKVGGVLKFGRYSLKTIDVKTDLKEFTDKKGFTLYTVEITNSKKKDAPKKTVDILYFSGWPDHGAPQEAYPALEMLKFCESYKKNVLVHCSAGVGRTGTLVAIKYGIELCLKKKVI | not soluble
SLATRRPMSIAEPDTAVSTASFMTAWEFPQGDDSAETPTTPKALQFQEPEYIHIPWDHNTDIAPDLMDLCHVVDDRTKAGKRVLIHCQQGASRSASLIIAYGLFQRPELTVNDAYYAAQAKSQWISPNMKLMYSLQDFQKEVSTKRTAQPSNREG | not soluble
MHHHHHHSSGVDLGTENLYFQSMRTGYRVFSANSTAACTELAKRITERLGAELGKSVVYQETNGETRVEIKESVRGQDIFIIQTIPRDVNTAVMELLIMAYALKTACARNIIGVIPYFPYSKQSKMRKRGSIVCKLLASMLAKAGLTHIITMDLHQKEIQGFFSFPVDNLRASPFLLQYIQEEIPNYRNAVIVAKSPDAAKRAQSYAERLRLGLAVIHGEAQCTELDMDDGRHSPPMVKNATVHPGLELPLMMAKEKPPITVVGDVGGRIAIIVDDIIDDVESFVAAAEILKERGAYKIYVMATHGILSAEAPRLIEESSVDEVVVTNTVPHEVQKLQCPKIKTVDISLILSEAIRRIHNGESMAYLFRN | soluble
MGHHHHHHSHMSFSKESSRLFGFVAGIKFPKMIQKVINENYVKYFNINMSEFKAPCEYESLNALFTRTLQIPRKFEEGFISPSDGKILECGSTFLANEEHFAFSIKGHAYSVEELLKDSFEKDELKNGLDYVNIYLSPKDYHRYHSPCDMQILSATYTSGVLYSVNEKHLERISNLYVKNERVSLKCQNEKGIFWLVFVGAQNVGKMRFNFDASIQTNAKISHNFTRKYENLNFKKGEELGNFELGSTIVLISQKGLLTFNLKVGQGIKFGEKIAD | soluble

Source: the DeepSol protein solubility set
